The target in series [1] is E5 zinc finger protein (five C-terminal fingers of E2C) (artificial). The series is described as follows: EMSA. As to conditions: tags: no cleavage domain. Background: Mobility shift assays separate free from complexed probe on a gel.
Series [2] addresses E4 zinc finger protein (four C-terminal fingers of E2C) (artificial). The series is described as follows: EMSA. To be noted: tags: no cleavage domain.
Series [3] concerns the target E6 (E2C) six-finger zinc finger protein (artificial). The series is described as follows: EMSA. To be noted: tags: no cleavage domain.
The target of series [4] is E3 zinc finger protein (three C-terminal fingers of E2C) (artificial). The series is described as follows: EMSA. As to conditions: tags: no cleavage domain.
In another series the target is P3 ZFN FCD S418P (artificial, UniProt P14870 SEQ:1-284, S418P (FokI numbering)). The series is described as follows: cell_activity. As to conditions: chain copies: 2 inferred.
The target of a further series is P3 ZFN FCD K441E (artificial, UniProt P14870 SEQ:1-284, K441E (FokI numbering)). The series is described as follows: cell_activity. As to conditions: chain copies: 2 inferred.

The results in this text go back to patent US20120329067, “Methods of Generating Zinc Finger Nucleases Having Altered Activity” (published 2012).

E4 zinc finger protein (four C-terminal fingers of E2C) (artificial), sequence (chain, as listed by the source): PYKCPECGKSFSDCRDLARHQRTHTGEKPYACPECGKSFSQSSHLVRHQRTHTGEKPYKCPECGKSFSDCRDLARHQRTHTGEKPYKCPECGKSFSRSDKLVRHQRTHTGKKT
P3 ZFN FCD S418P, sequence (P14870 other isoform, or with tags, fused parts or gaps S418P (FokI numbering) | S418P S418P): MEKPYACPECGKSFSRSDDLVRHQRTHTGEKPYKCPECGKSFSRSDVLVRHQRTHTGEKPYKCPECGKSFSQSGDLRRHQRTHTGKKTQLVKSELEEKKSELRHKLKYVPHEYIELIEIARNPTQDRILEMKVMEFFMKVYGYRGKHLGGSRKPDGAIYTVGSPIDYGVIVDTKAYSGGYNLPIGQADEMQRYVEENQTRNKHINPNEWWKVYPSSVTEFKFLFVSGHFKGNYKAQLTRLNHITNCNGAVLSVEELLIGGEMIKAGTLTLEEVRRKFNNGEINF
E5 zinc finger protein (five C-terminal fingers of E2C) (artificial), sequence (chain, as listed by the source): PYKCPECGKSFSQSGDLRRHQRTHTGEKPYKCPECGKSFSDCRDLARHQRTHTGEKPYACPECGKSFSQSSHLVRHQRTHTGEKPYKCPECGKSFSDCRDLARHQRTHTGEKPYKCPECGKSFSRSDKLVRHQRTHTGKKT
E3 zinc finger protein (three C-terminal fingers of E2C) (artificial), sequence (chain, as listed by the source): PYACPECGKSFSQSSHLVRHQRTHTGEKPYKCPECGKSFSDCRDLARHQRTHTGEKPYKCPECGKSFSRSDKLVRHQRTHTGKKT
P3 ZFN FCD K441E, sequence (P14870 other isoform, or with tags, fused parts or gaps K441E (FokI numbering) | K441E K441E): as the sequence (P14870 other isoform, or with tags, fused parts or gaps S418P (FokI numbering) | S418P S418P) above, with P123S, K146E counted along it
E6 (E2C) six-finger zinc finger protein (artificial), sequence (chain, as listed by the source): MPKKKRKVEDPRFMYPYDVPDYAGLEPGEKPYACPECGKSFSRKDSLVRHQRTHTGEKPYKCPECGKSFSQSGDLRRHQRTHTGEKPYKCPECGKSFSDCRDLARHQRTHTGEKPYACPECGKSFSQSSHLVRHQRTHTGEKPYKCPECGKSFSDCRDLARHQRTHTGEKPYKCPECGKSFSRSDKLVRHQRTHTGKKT

B1: E5 binding site (dsDNA)
DNA 1: GGGGCCGGAGCCGCA
DNA 2: TGCGGCTCCGGCCCC
With B1, the affinity in series [1], expressed as Kd, was 4.2 nM.

B2: E4 binding site (dsDNA)
DNA 1: GGGGCCGGAGCC
DNA 2: GGCTCCGGCCCC
With B2, in series [2], the Kd – broadly, the equilibrium constant for the complex coming apart – was 10.6 nM.

B3: E6 (E2C) binding site (dsDNA)
DNA 1: GGGGCCGGAGCCGCAGTG
DNA 2: CACTGCGGCTCCGGCCCC
In series [3], B3 gave a Kd of 0.85 nM.

B4: E3 binding site (dsDNA)
DNA 1: GGGGCCGGA
DNA 2: TCCGGCCCC
Turning to B4, the Kd in series [4] was determined as 35 nM.

B5: P3/P3 cleavage site, MluI spacer (dsDNA)
DNA 1: CGCCACTGCACGCGTGCAGTGGCG
DNA 2: CGCCACTGCACGCGTGCAGTGGCG
Consider B5, for which the results for the binding signal with P3 ZFN FCD S418P and in the series with P3 ZFN FCD K441E were > 10 fold of wt FCD activity and > 5 fold of wt FCD activity, respectively.
